This data set has as its system K4 kissing-loop RNA reporter. The data set can be described thus: apparent KD of K4 kissing-loop reporter; higher = weaker reporter binding. The note with it: Eterna round: R107. As for the experimental part: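 RNA-MaP round R107: designed RNA switches with theophylline, tryptophan, arginine or FMN aptamers are transcribed on-chip within common flanks. They are titrated with a labelled K4 kissing-loop RNA reporter in RNA-MaP buffer (100 mM Tris pH 7.5, 80 mM KCl, 4 mM MgCl2), without ligand or with the indicated ligand. Median apparent KD per design.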

The mark [1] stands for this setting: input ligand: theophylline 20 uM.
Where [2] appears, read: input ligand: tryptophan 2.4 mM.
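Further: bound reporter read as fluorescence of individual clusters on recovered sequencing chips by microscopy, with normalized cluster intensities fitted with a binding model.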

As to “AAUGUAAUGACGGCCGCCACUGAUUACCAGUGAUGUUGGUAAAGAACUUUAUAAGUCCUGGAAACCAGGACCGGGUCAACGGUCC [Tryp B Ex t1]”, the “apparent KD of K4 kissing-loop reporter” value worked out at 345 nM (input ligand: FMN 200 uM); 294 nM (input ligand: arginine 13.2 mM); 318 nM (input ligand: none); 309 nM under setting [1]; 258 nM under setting [2].
As to “AAUGUAUACUGAAGGAGCGAGUAGUGGAAACAUAAACUCAAUGCGAGUGAUGUUCGCAGUACUCAGGUAGGUCGCAGUAAUGGUA [Exclusion Arginine B Gf 8]”, the “apparent KD of K4 kissing-loop reporter” value (input ligand: FMN 200 uM) was 522 nM; the “apparent KD of K4 kissing-loop reporter” value (input ligand: arginine 13.2 mM) worked out at 311 nM; the “apparent KD of K4 kissing-loop reporter” value (input ligand: none) is 537 nM; the “apparent KD of K4 kissing-loop reporter” value under setting [1] was 468 nM; the “apparent KD of K4 kissing-loop reporter” value under setting [2] turned out to be 406 nM.
For the sequence “AAUGUGCAGGGAAGGAGCGUAGUCCAGUGAUGUUGGAGUUAAAUACCAGUGAUGUUGGUUAUACAGGUAGGUCGCCCUAAAGCGC [Exclusion Arginine B Gf 5]”, the “apparent KD of K4 kissing-loop reporter” value stood at 73.5 nM (input ligand: FMN 200 uM); 67.7 nM (input ligand: arginine 13.2 mM); 81.3 nM (input ligand: none); 98.3 nM under setting [1]; 71 nM under setting [2].
“AAUUAAUACAGAAGGAGCGUGUAUUUAACUACAAUUAUCUUAGCGAGUGAUGUUCGUUUUACACAGGUAGGUCGCUGUAUAUUUA [JR_ExcArginiB_Sub010]”: the “apparent KD of K4 kissing-loop reporter” value (input ligand: FMN 200 uM) amounted to 201 nM; the “apparent KD of K4 kissing-loop reporter” value (input ligand: arginine 13.2 mM) was 279 nM; the “apparent KD of K4 kissing-loop reporter” value (input ligand: none) was determined as 235 nM; the “apparent KD of K4 kissing-loop reporter” value under setting [1] was determined as 262 nM; the “apparent KD of K4 kissing-loop reporter” value under setting [2] is 157 nM.
For the sequence “AAUUCUUAUCUUAGUAGAUUUCUAAUUAAACGAGGACCGGUACGGCCGCCACUCGGUUAUGAGUGAUGUUCAUGGAAUUACAUAA [JR_SSTryptoA_Sub018]”, the “apparent KD of K4 kissing-loop reporter” value runs as follows: (input ligand: FMN 200 uM) 285 nM; (input ligand: arginine 13.2 mM) 486 nM; (input ligand: none) 467 nM; under setting [1], 486 nM; under setting [2], 172 nM.
On to “AAUUUAUUAACUGAUACCAGACUUAAUAAAUUGUAAAUUACUAGUGAUGUUAGUGAAUUUGUCCCUUGGCAGCAGUAUUUAUUAA [JR_ExcTheophyB_Sub009]”, for which the “apparent KD of K4 kissing-loop reporter” value was found to be 123 nM (input ligand: FMN 200 uM); 133 nM (input ligand: arginine 13.2 mM); 124 nM (input ligand: none); 141 nM under setting [1]; 106 nM under setting [2].
The like results for “AAUUUGGGUUCGGCCGCCACUCCAGUGAUGUUGGAUGGCGAAAUAAAGGCUAGACCAGGUUGCCGGAGGACCGGGAAUCCUGUAC [Qumabi]” were, in that order, 182 nM, 152 nM, 164 nM, 139 nM and 112 nM.
In the case of “ACAUCGGUUGAGAGUGAUGUUCCUUGUGUUCGAGGACCGGUACGGCCGCCACUCGGGUAGAAAAUAACAGAUGUGUUUCAUUUUU [BDazzled - #17 SS Tryptophan A]”, the “apparent KD of K4 kissing-loop reporter” value was found to be 180 nM (input ligand: FMN 200 uM); 93.2 nM (input ligand: arginine 13.2 mM); 141 nM (input ligand: none); 277 nM under setting [1]; 271 nM under setting [2].
Regarding “ACCUCACAGUGAUGUUGUGAGCCGAUAGUGAAGGAUAUUGUAAAGUCAAGAAGGUCAUGUCAGUCACAAAACGUUAAGCCUCGCA [theeternabot_exclusion_KL_FMN_A_19]”, the “apparent KD of K4 kissing-loop reporter” value reads like this: (input ligand: FMN 200 uM) 275 nM; (input ligand: arginine 13.2 mM) 218 nM; (input ligand: none) 254 nM; under setting [1], 266 nM; under setting [2], 194 nM.
Turning to “ACGAAAUGCGACUCCUAGUUACACCGGGAAGGAGCGCGGAUAACCGCAGGUAGGUCGCCCGGAAGCCGGACCAGUGAUGUUGGUC [Exclusion Arginine A Gf 27]”, the “apparent KD of K4 kissing-loop reporter” value is 240 nM (input ligand: FMN 200 uM); 273 nM (input ligand: arginine 13.2 mM); 182 nM (input ligand: none); 165 nM under setting [1]; 217 nM under setting [2].
The like results for “ACGACGCAUAGUGAUACCAGCAUUAUAUGAGUGAUGUUCUACCUAAAAUGGUAAUAAUGAUGCCCUUGGCAGCACUAUGCGUCAG [KL-SSTheoB2]” were, in that order, 400 nM, 453 nM, 461 nM, 638 nM and 283 nM.
As for “ACGACUGGAUGAAUAACAUCUAGUCGAGAUCGAGGACCGGUACGGCCGCCACUCGAGCUAACUGCGAGUGAUGUUCGAUAAUAAA [#OpenEnded 2]”, the “apparent KD of K4 kissing-loop reporter” value is 277 nM (input ligand: FMN 200 uM); 302 nM (input ligand: arginine 13.2 mM); 253 nM (input ligand: none); 200 nM under setting [1]; 88.4 nM under setting [2].
Take “ACGCGCGAGACGGCCGCCACUAUACGUCGAGUGAUGUUCGAGCCAAGAUGUCGUUACGUUUAUAAUAGGACCGGGUCAAUGGAUU [theeternabot_sameState_KL_Trp_B_19]”: the “apparent KD of K4 kissing-loop reporter” value (input ligand: FMN 200 uM) was 596 nM; the “apparent KD of K4 kissing-loop reporter” value (input ligand: arginine 13.2 mM) was 512 nM; the “apparent KD of K4 kissing-loop reporter” value (input ligand: none) amounted to 583 nM; the “apparent KD of K4 kissing-loop reporter” value under setting [1] was 661 nM; the “apparent KD of K4 kissing-loop reporter” value under setting [2] turned out to be 513 nM.
Turning to “ACGGAUACGCGAGAUACCAGAGGCAUUCGCCAGCGACCAUAAUGUCCCGAGAGUGAUGUUCUCCCUUGGCAGCUCAUGGUUAAUU [theeternabot_exclusion_KL_Theo_B_2]”, the “apparent KD of K4 kissing-loop reporter” value by setting is: (input ligand: FMN 200 uM) 484 nM; (input ligand: arginine 13.2 mM) 400 nM; (input ligand: none) 468 nM; under setting [1], 570 nM; under setting [2], 385 nM.
Take “ACGUCUCGUAAACUCGUGGUUUCGAUCGAUACCAGUAGCGAGAGUUACCCUUGGCAGCGACAUGAGUGAUGUUCAUGUACGAAGA [KL-XTheoA2]”: the “apparent KD of K4 kissing-loop reporter” value was 99.3 nM (input ligand: FMN 200 uM); 88.5 nM (input ligand: arginine 13.2 mM); 93.1 nM (input ligand: none); 89.8 nM under setting [1]; 90.3 nM under setting [2].
The like results for “ACGUGCACCAGUGAUGUUGGAAAAUAUGAAGGAGCGGGAGAAAACCCAGGUAGGUCGCAUAAUUGCACGAGCCACGAAAGUGGCA [#15 K4 Arginine A Same State]” were, in that order, 73.4 nM, 93.7 nM, 88.3 nM, 145 nM and 70.8 nM.
Take “ACGUGUCACUGAAGGAGCGUCUACCGAAUACGAGUGAUGUUCGUACACCACUGAUAUAGUGGACAGGUAGGUCGCAGUGAUACGU [Arg B Ex t3]”: the “apparent KD of K4 kissing-loop reporter” value (input ligand: FMN 200 uM) came to 120 nM; the “apparent KD of K4 kissing-loop reporter” value (input ligand: arginine 13.2 mM) worked out at 101 nM; the “apparent KD of K4 kissing-loop reporter” value (input ligand: none) was determined as 122 nM; the “apparent KD of K4 kissing-loop reporter” value under setting [1] amounted to 102 nM; the “apparent KD of K4 kissing-loop reporter” value under setting [2] was determined as 107 nM.
The corresponding values for “ACUAUCCGUAUAUAUAAGAUAGCUGGAGAUACCAGUUCAAUCUUGAACCCUUGGCAGCUCACCACCAAGUGAUGUUUGGCACGAC [theeternabot_sameState_KL_Theo_A_42]” are 326 nM, 241 nM, 326 nM, 292 nM and 273 nM.
As to “ACUGUACCGGGAAGGAGCGUGAAUGAGAAUGGAUAUAGUGAUGUUAUGUAUACGAACGAAUCGCAGGUAGGUCGCCCGGAUCCCU [SSArgB.aC]”, the “apparent KD of K4 kissing-loop reporter” value reads like this: (input ligand: FMN 200 uM) 617 nM; (input ligand: arginine 13.2 mM) 322 nM; (input ligand: none) 398 nM; under setting [1], 851 nM; under setting [2], 553 nM.
Turning to “AGAACUGUCUGAGAUACCAGCUAAGGAGUGAUGUUCCUAGGUCCACGAAAGUGGACCCAUAGCCCUUGGCAGCUCAGACAGUUCA [#23 K4 Theophylline B Same State]”, the “apparent KD of K4 kissing-loop reporter” value by setting is: (input ligand: FMN 200 uM) 1280 nM; (input ligand: arginine 13.2 mM) 833 nM; (input ligand: none) 1370 nM; under setting [1], 674 nM; under setting [2], 1160 nM.
The like results for “AGAACUGUCUGGGAUACCAGCCGAGGAGUGAUGUUCCGGCUCGACGAAACGUCGAGCUACGGCCCUUGGCAGCUCAGACAGUUCA [#22 K4 Theophylline B Same State]” were, in that order, 1990 nM, 639 nM, 1170 nM, 735 nM and 340 nM.

(Values after the supplement of paper PMC9170038.)
